Consider 2 molecules from PMC4407285 (Cell Reports, 2015).

The term stoichiometry N denotes the number of molecules, sites or subunits per partner or assembly.

Assay [1] addresses Candida glabrata Slx1 (Candida glabrata) (UniProt Q6FML9). Put plainly: SEC-MALS. (In general: Size exclusion chromatography separates by hydrodynamic size, large species first.)
For assay [2] the target is unchanged. The assay can be described thus: AUC.
For a further assay, the target named is T1, Candida glabrata Slx1 (Candida glabrata, UniProt Q6FML9 1-312).
T1 sequence: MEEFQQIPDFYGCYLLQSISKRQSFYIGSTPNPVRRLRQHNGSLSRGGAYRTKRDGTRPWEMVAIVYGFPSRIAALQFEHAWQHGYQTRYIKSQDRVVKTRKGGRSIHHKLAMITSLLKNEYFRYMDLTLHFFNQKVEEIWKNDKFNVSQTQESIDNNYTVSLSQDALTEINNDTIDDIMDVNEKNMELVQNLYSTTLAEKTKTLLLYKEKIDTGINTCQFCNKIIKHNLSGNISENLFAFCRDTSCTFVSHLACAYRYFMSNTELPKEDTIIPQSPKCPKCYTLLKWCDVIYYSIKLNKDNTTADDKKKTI
The assay can be described thus: co-purification.

For “Candida glabrata Slx4 conserved C-terminal domain (domain or fragment)”, the stoichiometry N in assay [1] and in assay [2] was 1 throughout.

B1: Candida glabrata Slx4 CCD3 (residues 647-726) (domain or fragment, UniProt Q6FJQ6 647-726, looked up)
chain: SNQKKVGVTSKSEVFEFLTHLVKQEPDLLTRIYCFQPITMNDLINKLRNKDSFVDLIDDGTIREWTDKLGICIRSNNLKD
For B1, in the assay with Candida glabrata Slx1, the binding result is listed as “binds”.
